{"source": "patent US20240245771A1", "about": "(XUZHOU MEDICAL UNIVERSITY, published 2024)", "biological_target": "T1, B7H3 target antigen (UniProt Q5ZPR3 29-466, limits assumed)", "T1 construct": "Control antigen is called 'other biotin-free antigen', which hints that this antigen may be biotinylated; also called B7H3 antigen; B7-H3 antigen", "T1 sequence (looked up)": "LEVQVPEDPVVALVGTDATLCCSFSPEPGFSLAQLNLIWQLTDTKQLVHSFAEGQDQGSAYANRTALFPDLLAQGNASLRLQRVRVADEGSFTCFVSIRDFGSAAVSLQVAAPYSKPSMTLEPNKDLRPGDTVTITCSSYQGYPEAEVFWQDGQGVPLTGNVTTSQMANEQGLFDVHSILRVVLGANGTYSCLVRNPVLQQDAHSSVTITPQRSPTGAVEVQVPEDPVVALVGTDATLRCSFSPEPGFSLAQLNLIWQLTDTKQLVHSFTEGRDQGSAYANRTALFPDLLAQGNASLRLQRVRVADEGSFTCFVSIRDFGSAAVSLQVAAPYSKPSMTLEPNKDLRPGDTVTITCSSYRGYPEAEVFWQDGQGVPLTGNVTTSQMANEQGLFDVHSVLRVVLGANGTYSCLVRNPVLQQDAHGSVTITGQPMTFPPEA", "assay": "Biacore SPR, antibody captured on Protein A chip, antigen flowed, Langmuir fit", "procedure": "The B7-H3 antigen was allowed to flow over the chip surface using a series of concentration gradients. The binding time was 120 s, and the dissociation time was 120 s. After the cycle dissociation was completed, the biochip was washed with glycine-hydrochloric acid (pH=1.5) buffer, the sample injection was performed at 30 μL/min, and regeneration was performed for 30 s. Reaction signals were detected in real time using a Biacore instrument, and thus binding and dissociation curves were obtained.\nThe data obtained from the experiment were fitted with the Langmuir model using GE software.", "data": [{"binder": "purified B7H3-02 scFv protein (prokaryotic expression, pET-22b) (scFv, The Biacore experiment speaks of 'purified B7H3-02 antibodies' captured on a Protein A chip; also called B7H3-02 scFv antibody; B7H3-02 antibody; not shown: His tag implied (detected with His antibodies, pET-22b vector)) scFv: EVQLFQSGGGLVQPGGSLRLSCAASGFTFSSYAMSWVRQAPGKGLEWVSAISGSGGSTYYADSVKGRFTISRDNSKNTLYLQMNSLRAEDTAVYYCARGVGRGFDYWGQGTTVTVSSSGGGSGGGGSGGGGSDIQLTQSPSSLSASVGDRVTITCRASQSISIYLNWYRQQPGKAPKLLIYAASSLQSGVPSRFSGSGSGTDFTLTISSLQPEDFATYFCQQTYSTPPWTFGQGTKVDIK", "values": [{"measurement": "Kd", "value": 27.8, "unit": "nM"}]}]}
